Results on five molecules are retold here after patent EP4474393A1.

Changes are numbered by the printed parent chain.

Holding throughout (assay): cell-based or functional assay
Experiment [1] concerns the target HIV-1 envelope proteins of the panel of 9 pseudoviruses resistant against CD4bs bNAbs.
For experiment [2], the target named is HIV-1 envelope proteins of the panel of 7 pseudoviruses selected from the 'Resistant panel to CD4bs bNAbs'.
For experiment [3], the target named is HIV-1 envelope proteins of the panel of 185 pseudoviruses generated from the Antibody Mediated Prevention Trials.
Experiment [4] deals with HIV-1 envelope proteins of the multiclade panel of 119 pseudoviruses.
The target in experiment [5] is HIV-1 envelope proteins of the panel of 12 global reference pseudovirus strains of HIV-1.
The target of experiment [6] is HIV-1 envelope proteins of the panel of 100 clade C HIV-1 pseudoviruses.
Experiment [7] has as its target HIV-1 envelope proteins of the panel of 8 pseudoviruses insensitive to neutralization by CD4bs bNAbs.

B1: 04_A06 (antibody, V domains shown)
VH: SVRLDQSGTAVKKPGASVRVSCRAPDSFTVYRPRLSAYFIGEFNIHWLRQAPGQGLEWLGFVNIFRGAVKYSSRFQGRITITRDTSSETSYLDLGALKADDTATYYCAWDKNVDDNPWRLDSWGQGTLVIVSS
VL: YIQVTQSPSSLSASIGDTITVACEVSQDVGWAVNWYHQRPGRPPYNLIYTAHNLAPGVASRFRGSRVGTYFTLTINNLLPEDVGTYYCQVFDSFAPGGTRVDL
With B1, the neutralization breadth, TZM-bl cell pseudovirus neutralization assay, up to 10 µg/ml in experiment [1] was found to be 100%; in experiment [2], 86%; in experiment [4], 99%; in experiment [6], 99%. The molecule further had an IC50, TZM-bl cell pseudovirus neutralization assay in experiment [2] of 0.153 µg/mL. For the same molecule, in experiment [3], the GeoMean IC50, TZM-bl cell pseudovirus neutralization assay was found to be 0.084 µg/mL. For the same molecule, the neutralization breadth, TZM-bl cell pseudovirus neutralization assay in experiment [3] is < 98%; in experiment [5] it was 100%. Besides, the geometric mean IC50, TZM-bl cell pseudovirus neutralization assay in experiment [4] came to 0.036 µg/mL; in experiment [5], 0.038 µg/mL; in experiment [6], 0.057 µg/mL.

B2: 04_B09 (antibody, V domains shown)
VH: B1 VH with R74A, Q76R, S87L, A99P, Y106F, I130V
VL: YIQVTQSPSSLSASVGDTITVACQVSQDVGWAVNWYHQRPGRPPYNLIYTTSNLAPGVASRFRGTRVATYFTLTINNLLPEDVGTYYCQVFESFAPGGTRVDLR
On to B2, for which, in experiment [5], the geometric mean IC50, TZM-bl cell pseudovirus neutralization assay was < 0.05 µg/mL and the neutralization breadth, TZM-bl cell pseudovirus neutralization assay came to 100%.

B3: 01_B01 (antibody, V domains shown)
VH: HVQLWQSGAEVKKPGASVKISCAAWGFGTTSGYSFRDYRIHWVRQVPGQGFQWMGHIQPRYGAVNYAHQFQGRITMTREVSFDASGGTAYMELRSLRSDDTATYYCVTHKLYDGEDASDLAWRLDPWGQGTRVTVSS
VL: GVHLTQSPASLSASVGDRVTFTCQASQDITNAINWYQLRPGKTPKLMIHDGSTLRRGVPSRFAGGGFGTKFTFTIDNLQPEDLATYFCQHYEFFPPAGTQVELN
As for B3, in experiment [5], the geometric mean IC50, TZM-bl cell pseudovirus neutralization assay is < 0.05 µg/mL and the neutralization breadth, TZM-bl cell pseudovirus neutralization assay was determined as 100%.

B4: 05_C07 (antibody, V domains shown)
VH: HVQLWQSGAEVKKPGASVKISCSAWGFGTRSGYTFRDYRIHWVRQVPRQGFEWMGHLHPAYGAVNYARQFQGRIIMTREVSFDGSGGTVYMELRSLRSDDTATYYCVTHKLYDGEDASDLTWRLDPWGQGTRVTVSS
VL: B3 VL with H3S, S12C, G65S, K70R, E102D, L103F
For B4, in experiment [5], the geometric mean IC50, TZM-bl cell pseudovirus neutralization assay is < 0.05 µg/mL and the neutralization breadth, TZM-bl cell pseudovirus neutralization assay was 100%.

B5: 01_D03 (antibody, V domains shown)
VH: B3 VH with A23S, I40V, Q45H, V46I, P47A, I57M, H68R, T103V, A121T, T134I
VL: B3 VL with G65S, A97V
As for B5, the neutralization breadth, TZM-bl cell pseudovirus neutralization assay in experiment [7] was 88%. In experiment [5], the geometric mean IC50, TZM-bl cell pseudovirus neutralization assay came out at 0.021 µg/mL and the neutralization breadth, TZM-bl cell pseudovirus neutralization assay was determined as 100%.
